Biological target: CXCR3 chemotactic receptor (human (endogenous in PBMC)) (UniProt P49682)
Chain of UniProt P49682 (P49682 whole entry): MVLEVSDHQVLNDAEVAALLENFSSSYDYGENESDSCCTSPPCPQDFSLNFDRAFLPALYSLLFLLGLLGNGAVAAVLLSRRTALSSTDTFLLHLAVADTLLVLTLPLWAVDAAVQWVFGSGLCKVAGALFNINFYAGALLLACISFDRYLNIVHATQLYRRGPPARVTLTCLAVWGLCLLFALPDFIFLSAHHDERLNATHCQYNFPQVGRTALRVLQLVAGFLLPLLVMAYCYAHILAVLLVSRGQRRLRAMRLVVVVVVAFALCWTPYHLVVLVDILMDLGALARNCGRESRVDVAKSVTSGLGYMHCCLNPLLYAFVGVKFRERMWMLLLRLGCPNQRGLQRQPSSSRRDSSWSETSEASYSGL

chemotaxis of PBMC (Boyden chamber, Tag7-Mts1 at 10^-9 M) after preincubation of the cells with antibodies to CXCR3; reduction of migration: < 20%
Substance: Tag7-Mts1 complex (from UniProt O75594 22-196; P26447 1-101)

Reference: paper PMC6351033
